Assay results published in PMC4240464.

Legend:
[1] = molecular target: Evasin-4–Fc (Rhipicephalus sanguineus); experiment: SPR
[2] = molecular target: Fc–Evasin-4 (Rhipicephalus sanguineus); experiment: SPR

| Binder | Kd [1] [nM] | Kd [2] [nM] |
| --- | --- | --- |
| CCL24 (ligand) VVIPSPCCMFFVSKRIPENRVVSYQLSSRSTCLKAGVIFTTKKGQQFCGDPKQEWVQRYMKNLDAKQKKASPRARAVAVKGPVQRYPGNQTTC | 708 | 4.84 |
| CCL15 (ligand) QFTNDAETELMMSKLPLENPVVLNSFHFAADCCTSYISQSIPCSLMKSYFETSSECSKPGVIFLTKKGRQVCAKPSGPGVQDCMKKLKPYSI | 0.016 | 0.04 |
| CCL23 (ligand) RVTKDAETEFMMSKLPLENPVLLDRFHATSADCCISYTPRSIPCSLLESYFETNSECSKPGVIFLTKKGRRFCANPSDKQVQVCMRMLKLDTRIKTRKN | 0.232 | 0.124 |
| CCL18 (ligand) AQVGTNKELCCLVYTSWQIPQKFIVDYSETSPQCPKPGVILLTKRGRQICADPNKKWVQKYISDLKLNA | 3.63 | 0.083 |
| CCL1 (ligand) KSMQVPFSRCCFSFAEQEIPLRAILCYRNTSSICSNEGLIFKLKRGKEACALDTVGWVQRHRKMLRHCPSKRK | 0.097 | 0.276 |
